Assay results: PMC4904203

Columns and labels:
[1] = molecular target: MEF2C fused to the C-terminal half of Venus (VC) (UniProt Q8CFN5); assay: split reporter (BiFC, NanoBiT); Venus BiFC: VN and VC fusions co-transfected into C2C12 myoblasts with mCherry as transfection control; confocal imaging 24 h after transfection; cells with Venus complementation counted as percent of mCherry-positive cells (mean ± SD, three experiments); for Fig. 6a cells were first transfected with Trip6 siRNA or control siRNA
Chain of UniProt Q8CFN5 (Q8CFN5 whole entry, the tested form may be a part): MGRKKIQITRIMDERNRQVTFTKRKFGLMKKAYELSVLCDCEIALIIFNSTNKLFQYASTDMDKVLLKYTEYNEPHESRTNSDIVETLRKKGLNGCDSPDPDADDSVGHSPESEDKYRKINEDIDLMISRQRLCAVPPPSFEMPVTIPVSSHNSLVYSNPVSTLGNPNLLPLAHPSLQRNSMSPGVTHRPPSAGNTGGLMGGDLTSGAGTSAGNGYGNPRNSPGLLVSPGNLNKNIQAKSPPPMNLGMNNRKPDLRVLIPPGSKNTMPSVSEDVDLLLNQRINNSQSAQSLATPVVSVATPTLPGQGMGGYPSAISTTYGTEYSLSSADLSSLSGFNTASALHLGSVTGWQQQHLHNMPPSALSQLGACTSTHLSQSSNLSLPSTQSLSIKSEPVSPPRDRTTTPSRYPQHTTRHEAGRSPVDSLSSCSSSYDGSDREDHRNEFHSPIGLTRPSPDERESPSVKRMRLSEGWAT

[2] = molecular target: nTRIP6 fused to the C-terminal half of Venus (VC); assay: as above; settings: scale: %

Substance | percent of transfected cells with Venus complementation [1] | percent of transfected cells with Venus complementation [2]
nTRIP6 (nuclear isoform of TRIP6) fused to the N-terminal half of Venus (VN) (natural protein) | 70.6% | –
nTRIP6 lacking the LIM domains (pre-LIM) fused to VN (domain or fragment) | 65.5% | –
HDAC5-Flag fused to the N-terminal half of Venus (VN) (from UniProt Q9UQL6 1-1122) (enzyme) | – | 79.5
